Experimental findings from patent publication US20220040297A1 (Chugai, published 2022) are described below.

B1: GLS3000 P95G (antibody, name in Kabat numbering, V domains shown)
VH: QVQLVESGGGVVQPGRSLRLSCAASGFTFSNAWMHWVRQAPGKGLEWVAQIKAKSNNYATYYAESVKGRFTISRDDSKNSLYLQMNSLKTEDTAVYYCRYVHYGAYYGVDAWGQGTTVTVSS
VL: DIVMTQSPLSLPVTPGEPASISCRSSQSLVHSNRNTYLHWYQQKPGQAPRLLIYKVSNRFSGVPDRFSGSGSGTDFTLKISRVEAEDVGVYYCGQGTQVGYTFGQGTKLEIK
notes: one-arm format as m2
B2: GLS3000 Q27P (antibody, name in Kabat numbering, V domains shown)
VH: QVQLVESGGGVVQPGRSLRLSCAASGFTFSNAWMHWVRQAPGKGLEWVAQIKAKSNNYATYYAESVKGRFTISRDDSKNSLYLQMNSLKTEDTAVYYCRYVHYGAYYGVDAWGQGTTVTVSS
VL: DIVMTQSPLSLPVTPGEPASISCRSSPSLVHSNRNTYLHWYQQKPGQAPRLLIYKVSNRFSGVPDRFSGSGSGTDFTLKISRVEAEDVGVYYCGQGTQVPYTFGQGTKLEIK
notes: one-arm format as m2
B3: GLS3000 Q27L (antibody, name in Kabat numbering, V domains shown)
VH: QVQLVESGGGVVQPGRSLRLSCAASGFTFSNAWMHWVRQAPGKGLEWVAQIKAKSNNYATYYAESVKGRFTISRDDSKNSLYLQMNSLKTEDTAVYYCRYVHYGAYYGVDAWGQGTTVTVSS
VL: DIVMTQSPLSLPVTPGEPASISCRSSLSLVHSNRNTYLHWYQQKPGQAPRLLIYKVSNRFSGVPDRFSGSGSGTDFTLKISRVEAEDVGVYYCGQGTQVPYTFGQGTKLEIK
notes: one-arm format as m2
B4: GLS3000 P95L (antibody, name in Kabat numbering, V domains shown)
VH: QVQLVESGGGVVQPGRSLRLSCAASGFTFSNAWMHWVRQAPGKGLEWVAQIKAKSNNYATYYAESVKGRFTISRDDSKNSLYLQMNSLKTEDTAVYYCRYVHYGAYYGVDAWGQGTTVTVSS
VL: DIVMTQSPLSLPVTPGEPASISCRSSQSLVHSNRNTYLHWYQQKPGQAPRLLIYKVSNRFSGVPDRFSGSGSGTDFTLKISRVEAEDVGVYYCGQGTQVLYTFGQGTKLEIK
notes: one-arm format as m2
B5: GLS3000 Q27D (antibody, name in Kabat numbering, V domains shown)
VH: QVQLVESGGGVVQPGRSLRLSCAASGFTFSNAWMHWVRQAPGKGLEWVAQIKAKSNNYATYYAESVKGRFTISRDDSKNSLYLQMNSLKTEDTAVYYCRYVHYGAYYGVDAWGQGTTVTVSS
VL: DIVMTQSPLSLPVTPGEPASISCRSSDSLVHSNRNTYLHWYQQKPGQAPRLLIYKVSNRFSGVPDRFSGSGSGTDFTLKISRVEAEDVGVYYCGQGTQVPYTFGQGTKLEIK
notes: one-arm format as m2
B6: GLS3000 Q27E (antibody, name in Kabat numbering, V domains shown)
VH: QVQLVESGGGVVQPGRSLRLSCAASGFTFSNAWMHWVRQAPGKGLEWVAQIKAKSNNYATYYAESVKGRFTISRDDSKNSLYLQMNSLKTEDTAVYYCRYVHYGAYYGVDAWGQGTTVTVSS
VL: DIVMTQSPLSLPVTPGEPASISCRSSESLVHSNRNTYLHWYQQKPGQAPRLLIYKVSNRFSGVPDRFSGSGSGTDFTLKISRVEAEDVGVYYCGQGTQVPYTFGQGTKLEIK
notes: one-arm format as m2
B7: GLS3000 Q27R (antibody, name in Kabat numbering, V domains shown)
VH: QVQLVESGGGVVQPGRSLRLSCAASGFTFSNAWMHWVRQAPGKGLEWVAQIKAKSNNYATYYAESVKGRFTISRDDSKNSLYLQMNSLKTEDTAVYYCRYVHYGAYYGVDAWGQGTTVTVSS
VL: DIVMTQSPLSLPVTPGEPASISCRSSRSLVHSNRNTYLHWYQQKPGQAPRLLIYKVSNRFSGVPDRFSGSGSGTDFTLKISRVEAEDVGVYYCGQGTQVPYTFGQGTKLEIK
notes: one-arm format as m2
B8: GLS3000 P95S (antibody, name in Kabat numbering, V domains shown)
VH: QVQLVESGGGVVQPGRSLRLSCAASGFTFSNAWMHWVRQAPGKGLEWVAQIKAKSNNYATYYAESVKGRFTISRDDSKNSLYLQMNSLKTEDTAVYYCRYVHYGAYYGVDAWGQGTTVTVSS
VL: DIVMTQSPLSLPVTPGEPASISCRSSQSLVHSNRNTYLHWYQQKPGQAPRLLIYKVSNRFSGVPDRFSGSGSGTDFTLKISRVEAEDVGVYYCGQGTQVSYTFGQGTKLEIK
notes: one-arm format as m2

The target of this assay is CD3ε homodimer protein (human, UniProt P07766 23-126, limits assumed). The experiment in a line: SPR, immobilized CD3ε homodimer.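 Further: biacore T200 surface plasmon resonance at 25 °C, antibody variants flowed as analytes over amine-coupled CD3ε homodimer on a CM4 chip, variant binding amount divided by that of GLS3000 antibody.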
CD3ε homodimer protein, sequence (P07766 23-126 limits assumed): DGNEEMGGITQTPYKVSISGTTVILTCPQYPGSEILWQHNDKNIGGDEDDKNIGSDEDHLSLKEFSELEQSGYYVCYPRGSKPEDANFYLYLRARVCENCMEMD
Consider B1, for which the “ratio of amounts bound (vs GLS3000)” value was 0.37. For the molecule B2, the “ratio of amounts bound (vs GLS3000)” value stood at 0.29. Consider B3, for which the “ratio of amounts bound (vs GLS3000)” value was 0.92.

In the case of B4, the “ratio of amounts bound (vs GLS3000)” value worked out at 0.24. As for B5, the “ratio of amounts bound (vs GLS3000)” value was 0.85. B6: the “ratio of amounts bound (vs GLS3000)” value came out at 0.88. For B7, the “ratio of amounts bound (vs GLS3000)” value was 1.19. Take B8: the “ratio of amounts bound (vs GLS3000)” value was found to be 0.43.
